According to publication doi:10.1101/2021.05.19.444834:

Columns and labels:
[1] = biological target: unmodified C62A ThfA (Thermobifida fusca); test: BLI
[2] = biological target: doubly dehydrated C62A ThfA (Thermobifida fusca); test: BLI

Kd [1]: 28 nM | Kd [2]: 18 nM
Substance: maltose binding protein (MBP) fusion to ThfB (enzyme)
